Where “and” joins values, the source holds several entries; their conditions need not be identical. Identical values can stand only once. Entries after “also recorded” stand apart in the source; their conditions may differ.
Columns and labels:
Aβ42 [1] = biological target: T1, Aβ42 (Homo sapiens, UniProt P05067); experiment: Single-molecule AFM force spectroscopy; format: binding; conditions: pH 7
Aβ42 [2] = biological target: T1, Aβ42; experiment: Dynamic force spectroscopy; format: binding; conditions: for Lifetime of the dimer: calculated by k^−1off, SD from five independent experiments
Aβ42 [3] = biological target: T1, Aβ42; experiment: Contour length analysis of Aβ42 dimers; format: binding; conditions: for Prevailing region of interpeptide interaction: in words
[4] = SDS-page gel experiment, monomer state of Aβ42; format: physicochemical; conditions: diluted in different pH buffers from DMSO stock solution (Fig. S1)
Aβ40 [5] = experiment: SMFS of Aβ40 interaction; format: binding; conditions: Aβ40 vs Aβ42, neutral pH; ref [10]
Aβ40 [6] = conditions: cited from earlier work
[7] = single representative curve (Fig. 2A), WLC fit, ALR ~4,000 pN/s
[8] = pH 7, area under Gaussian curve

T1 sequence (P05067 672-713 limits assumed): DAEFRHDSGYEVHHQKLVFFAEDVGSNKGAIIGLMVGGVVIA

Aβ42: Aβ42 terminated with cysteine at N-terminus (AnaSpec, Inc., Fremont, CA)
Rupture force of representative curves with various contour lengths (Aβ42 [1]; four curves of Fig. 4A, similar ALR (~20,000 pN/s)): 150±20 pN
Contour length, representative F-D curve (Aβ42 [1]; [7]): ~ 58 nm
Rupture force, representative F-D curve (Aβ42 [1]; [7]): ~ 83 pN
Lifetime of dimers (in words) (Aβ42 [2]; SMFS/DFS, pH not given): in the range of a second; also recorded: higher than that of Aβ40
Lifetime of the dimer (Aβ42 [2]; pH 2.7): 2.5±0.7 s and 2.5 s and 2.5 (±0.7) s
Increase of the dimer lifetime, pH 2.7 vs pH 7 (Aβ42 [2]; pH 2.7 vs pH 7): ~5 fold
Lifetime of the dimer (Aβ42 [2]; pH 7): 0.46 (±0.25) s
ΔG, barrier height for dimer dissociation (Aβ42 [2]; pH 7, calculated from koff): ~ 28.3 kBT
Prevailing region of interpeptide interaction (Aβ42 [3]; acidic pH (2.7)): interaction within the peptide center prevailed
Conformer population, model L3 (C-termini), change vs pH 7 (Aβ42 [3]; pH 2.7 vs pH 7, result in words): three-fold drop in the interaction between the C-termini (model L3)
Conformer population, model L0 (interactions very close to N-termini) (Aβ42 [3]; [8]): 13%
Conformer population, model L1 (middle segments) (Aβ42 [3]; [8]): 29%
Prevailing region of interpeptide interaction (Aβ42 [3]; pH 7): Interaction via C-terminal segments prevailed
Contour length, Gaussian center L0 (Aβ42 [3]; pH 7 and 2.7, L0): around 35 nm
Contour length, Gaussian center L1 (Aβ42 [3]; pH 7 and 2.7, L1): ~41 nm
Contour length, Gaussian center L2 (Aβ42 [3]; pH 7 and 2.7, L2): ~47 nm
Contour length, Gaussian center L3 (Aβ42 [3]; pH 7 and 2.7, L3): ~53 nm
Monomer state by SDS-page gel [4]: The monomer state of Aβ42 diluted in different pH buffers from the stock solution was confirmed

Aβ40: Aβ protein containing 40 residues; Aβ42 differs by two extra C terminal residues (I41 and A42)
Dimer lifetime relative to Aβ42 (Aβ40 [5]): four times shorter
Dimer lifetime relative to monomer dynamics (Aβ40 [6]; Aβ40 dimer lifetime vs monomer dynamics, ref [10]): ~10^6 times
Conformer population, major interactions (L0 and L1) (Aβ40 [6]; pH 7, N-terminal segment interactions, ref [10]): 74%
Lifetime of misfolded Aβ40 dimers (Aβ40 [6]; ref [10]): 0.1 s
Rupture forces of dimers compared to Aβ42 (Aβ40 [6]; result in words, reference not given, Aβ40 study is ref [10]): quite similar to those for Aβ42

From publication PMC4019693 (Nanomedicine : nanotechnology, biology, and medicine, 2013)
